Changes are numbered by the printed parent chain.
B1: Hab015VL5VH1b-hFc (scFv, part only; not given: VL-VH linker and human IgG1 Fc, V domains shown, not shown: another chain or arm of the molecule; a dimerising Fc or GST; small tags and cut ends)
VL: NIQMTQSPSSLSASVGDRVTITCKASENVGTYVSWYQQKPGKSPKLLIYGASNRYTGVPSRFSGSGSGTDFTLTISSLQPEDFATYYCGQFYSFPSTFGGGTKVEIK
VH: EVQLVESGGGLVKPGGSLRLSCAASGITFSNFWMNWVRQAPGKGLEWVGQIRLKSEDYATHYAESVKGRFTISREDSKNTVYLQMNSLKTEDTAVYYCTTGYYFDYWGQGTTVTVSS
B2: Hab015VL5VH5a-hFc (scFv, part only; not given: scFv linker and human IgG1 Fc, V domains shown, not shown: another chain or arm of the molecule; a dimerising Fc or GST; small tags and cut ends)
VL: B1 VL
VH: B1 VH with A23V, E56D
B3: Hab015VL5VH6a-hFc (scFv, part only; not given: scFv linker and human IgG1 Fc, V domains shown, not shown: another chain or arm of the molecule; a dimerising Fc or GST; small tags and cut ends)
VL: B1 VL
VH: B1 VH with G42E, E56D

biological target: human DLL3 protein expressed on CHO-K1 recombinant cells (human DLL3 extracellular segment fused to EpCAM transmembrane and intracellular regions) (human) (UniProt Q9NYJ7); assay: FACS, CHO-K1 hDLL3 cells, 0.00128 nM antibody
Sequence (Q9NYJ7 other isoform, or with tags, fused parts or gaps limits assumed): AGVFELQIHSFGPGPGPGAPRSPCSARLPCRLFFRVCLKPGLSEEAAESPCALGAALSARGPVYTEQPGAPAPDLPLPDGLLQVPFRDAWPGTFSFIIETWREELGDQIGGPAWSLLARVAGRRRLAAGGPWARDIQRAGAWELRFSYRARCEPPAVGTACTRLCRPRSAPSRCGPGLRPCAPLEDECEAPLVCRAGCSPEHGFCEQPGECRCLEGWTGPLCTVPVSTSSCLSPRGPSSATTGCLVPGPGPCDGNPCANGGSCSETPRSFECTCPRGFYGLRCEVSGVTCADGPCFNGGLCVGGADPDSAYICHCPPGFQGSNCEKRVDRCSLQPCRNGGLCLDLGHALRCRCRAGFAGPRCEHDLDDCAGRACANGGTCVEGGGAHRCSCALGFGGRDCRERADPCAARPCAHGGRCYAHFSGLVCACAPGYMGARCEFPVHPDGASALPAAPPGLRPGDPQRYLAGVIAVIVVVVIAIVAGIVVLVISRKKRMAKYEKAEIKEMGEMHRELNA

| Binder | MFI |
| --- | --- |
| B1 | 137 MFI |
| B2 | 134 MFI |
| B3 | 122 MFI |

biological target: DLL3 endogenously expressed on NCI-H82 cells (UniProt Q9NYJ7); assay: FACS on NCI-H82 cells; antibody 0.8 nM
Sequence (Q9NYJ7 27-618): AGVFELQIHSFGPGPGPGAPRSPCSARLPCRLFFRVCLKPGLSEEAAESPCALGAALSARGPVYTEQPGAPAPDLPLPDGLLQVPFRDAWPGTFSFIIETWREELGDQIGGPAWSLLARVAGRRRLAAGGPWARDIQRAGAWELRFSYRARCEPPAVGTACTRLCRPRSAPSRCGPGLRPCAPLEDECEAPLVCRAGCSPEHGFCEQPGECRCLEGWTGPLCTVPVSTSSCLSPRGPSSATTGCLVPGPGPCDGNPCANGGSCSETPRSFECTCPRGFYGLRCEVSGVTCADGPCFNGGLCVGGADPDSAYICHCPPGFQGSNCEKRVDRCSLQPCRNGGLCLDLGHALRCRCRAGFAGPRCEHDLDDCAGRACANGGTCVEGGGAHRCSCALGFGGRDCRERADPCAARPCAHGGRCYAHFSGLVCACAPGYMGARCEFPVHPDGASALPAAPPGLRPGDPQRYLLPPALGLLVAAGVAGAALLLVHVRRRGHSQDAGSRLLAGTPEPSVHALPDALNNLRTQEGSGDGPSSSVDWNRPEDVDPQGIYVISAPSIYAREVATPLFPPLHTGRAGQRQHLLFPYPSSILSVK

| Binder | MFI |
| --- | --- |
| B1 | 711 |
| B2 | 779 |
| B3 | 755 |

biological target: human DLL3 protein expressed on CHO-K1 recombinant cells (human DLL3 extracellular segment fused to EpCAM transmembrane and intracellular regions) (human) (UniProt Q9NYJ7); assay: FACS, CHO-K1 hDLL3 cells, 20 nM antibody

| Binder | MFI |
| --- | --- |
| B1 | 11500 MFI |
| B2 | 12000 MFI |
| B3 | 10900 MFI |

biological target: human DLL3 protein expressed on CHO-K1 recombinant cells (human DLL3 extracellular segment fused to EpCAM transmembrane and intracellular regions) (human) (UniProt Q9NYJ7); assay: FACS, CHO-K1 hDLL3 cells, 4 nM antibody

| Binder | MFI |
| --- | --- |
| B1 | 10300 MFI |
| B2 | 10700 MFI |
| B3 | 9720 MFI |

biological target: DLL3 endogenously expressed on NCI-H82 cells (UniProt Q9NYJ7); assay: FACS on NCI-H82 cells; antibody 4 nM

| Binder | MFI |
| --- | --- |
| B1 | 745 |
| B2 | 848 |
| B3 | 827 |

biological target: monkey DLL3 on CHO-K1-cyno DLL3 cells (cynomolgus monkey); assay: FACS, CHO-K1-cyno DLL3 cells, 0.00128 nM antibody
Sequence (chain, as listed by the source limits assumed): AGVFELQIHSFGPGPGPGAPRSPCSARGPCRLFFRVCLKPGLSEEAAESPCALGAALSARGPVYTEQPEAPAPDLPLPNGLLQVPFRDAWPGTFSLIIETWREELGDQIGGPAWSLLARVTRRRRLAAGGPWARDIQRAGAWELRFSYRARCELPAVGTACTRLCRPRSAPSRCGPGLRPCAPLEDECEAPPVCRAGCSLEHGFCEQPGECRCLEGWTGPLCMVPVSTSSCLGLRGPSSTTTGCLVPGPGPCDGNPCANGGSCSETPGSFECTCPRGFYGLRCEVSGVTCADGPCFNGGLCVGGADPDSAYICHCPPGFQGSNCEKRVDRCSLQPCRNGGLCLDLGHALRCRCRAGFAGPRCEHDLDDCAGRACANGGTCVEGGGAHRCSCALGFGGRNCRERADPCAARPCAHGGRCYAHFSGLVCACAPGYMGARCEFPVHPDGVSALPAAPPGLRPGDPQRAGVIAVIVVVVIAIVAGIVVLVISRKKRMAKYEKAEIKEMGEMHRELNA

| Binder | MFI |
| --- | --- |
| B1 | 140 MFI |
| B2 | 142 MFI |
| B3 | 125 MFI |

biological target: human delta-like ligand 3 (DLL3) on SHP77 cells (human) (UniProt Q9NYJ7); assay: FACS on SHP77 cells
Sequence (Q9NYJ7 27-618, stated change not applied): as the sequence (Q9NYJ7 27-618) above

| Binder | MFI at 0.00128 nM | MFI at 0.0064 nM | MFI at 0.032 nM | MFI at 0.16 nM | MFI at 0.8 nM | MFI at 4 nM | MFI at 20 nM | MFI at 100 nM |
| --- | --- | --- | --- | --- | --- | --- | --- | --- |
| B1 | 102 MFI | 118 MFI | 178 MFI | 356 MFI | 632 MFI | 714 MFI | 844 MFI | 1030 MFI |
| B2 | 106 MFI | 122 MFI | 189 MFI | 405 MFI | 666 MFI | 785 MFI | 876 MFI | 1060 MFI |
| B3 | 101 MFI | 117 MFI | 171 MFI | 362 MFI | 663 MFI | 726 MFI | 770 MFI | 1090 MFI |

biological target: monkey DLL3 on CHO-K1-cyno DLL3 cells (cynomolgus monkey); assay: FACS, CHO-K1-cyno DLL3 cells, 0.0064 nM antibody

| Binder | MFI |
| --- | --- |
| B1 | 195 MFI |
| B2 | 194 MFI |
| B3 | 169 MFI |

biological target: human DLL1 protein (Acro, Cat. No. DL1-H52H8) (human) (UniProt O00548); assay: ELISA, coated hDLL1; maximum over 0.1, 1, 10, 100 nM antibody
Sequence (O00548 18-540 limits assumed): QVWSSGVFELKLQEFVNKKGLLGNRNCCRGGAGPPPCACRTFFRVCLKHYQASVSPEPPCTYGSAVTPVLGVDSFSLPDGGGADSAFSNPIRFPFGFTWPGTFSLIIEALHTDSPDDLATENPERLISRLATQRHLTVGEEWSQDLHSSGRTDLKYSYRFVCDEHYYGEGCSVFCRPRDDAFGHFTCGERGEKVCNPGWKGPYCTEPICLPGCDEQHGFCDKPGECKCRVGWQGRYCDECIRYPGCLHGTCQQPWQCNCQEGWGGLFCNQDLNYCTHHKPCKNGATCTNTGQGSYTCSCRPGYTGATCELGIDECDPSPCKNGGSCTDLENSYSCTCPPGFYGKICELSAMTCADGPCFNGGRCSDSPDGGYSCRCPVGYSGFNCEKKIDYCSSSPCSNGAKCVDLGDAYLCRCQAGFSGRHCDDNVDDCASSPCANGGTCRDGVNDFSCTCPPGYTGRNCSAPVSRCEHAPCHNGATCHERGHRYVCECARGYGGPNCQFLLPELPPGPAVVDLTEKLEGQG

| Binder | Emax of OD450 nm binding value |
| --- | --- |
| B1 | 0.43 OD450 nm |
| B2 | 0.47 OD450 nm |
| B3 | 0.71 OD450 nm |

biological target: monkey DLL3 on CHO-K1-cyno DLL3 cells (cynomolgus monkey); assay: FACS, CHO-K1-cyno DLL3 cells, 0.032 nM antibody

| Binder | MFI |
| --- | --- |
| B1 | 410 MFI |
| B2 | 428 MFI |
| B3 | 371 MFI |

biological target: human DLL3 protein expressed on CHO-K1 recombinant cells (human DLL3 extracellular segment fused to EpCAM transmembrane and intracellular regions) (human) (UniProt Q9NYJ7); assay: FACS, CHO-K1 hDLL3 cells, 0.8 nM antibody

| Binder | MFI |
| --- | --- |
| B1 | 4100 MFI |
| B2 | 4640 MFI |
| B3 | 3960 MFI |

biological target: human DLL3 protein expressed on CHO-K1 recombinant cells (human DLL3 extracellular segment fused to EpCAM transmembrane and intracellular regions) (human) (UniProt Q9NYJ7); assay: FACS, CHO-K1 hDLL3 cells, 0.032 nM antibody

| Binder | MFI |
| --- | --- |
| B1 | 341 MFI |
| B2 | 339 MFI |
| B3 | 294 MFI |

biological target: DLL3 endogenously expressed on NCI-H82 cells (UniProt Q9NYJ7); assay: FACS on NCI-H82 cells; antibody 0.0064 nM

| Binder | MFI |
| --- | --- |
| B1 | 139 |
| B2 | 139 |
| B3 | 127 |

biological target: human DLL3 protein expressed on CHO-K1 recombinant cells (human DLL3 extracellular segment fused to EpCAM transmembrane and intracellular regions) (human) (UniProt Q9NYJ7); assay: FACS, CHO-K1 hDLL3 cells, 0.16 nM antibody

| Binder | MFI |
| --- | --- |
| B1 | 980 MFI |
| B2 | 1030 MFI |
| B3 | 883 MFI |

biological target: mouse DLL3 on CHO-K1-mDLL3 cells (mouse) (UniProt O88516); assay: FACS, CHO-K1-mDLL3 cells, 20 nM antibody
Sequence (O88516 other isoform, or with tags, fused parts or gaps limits assumed): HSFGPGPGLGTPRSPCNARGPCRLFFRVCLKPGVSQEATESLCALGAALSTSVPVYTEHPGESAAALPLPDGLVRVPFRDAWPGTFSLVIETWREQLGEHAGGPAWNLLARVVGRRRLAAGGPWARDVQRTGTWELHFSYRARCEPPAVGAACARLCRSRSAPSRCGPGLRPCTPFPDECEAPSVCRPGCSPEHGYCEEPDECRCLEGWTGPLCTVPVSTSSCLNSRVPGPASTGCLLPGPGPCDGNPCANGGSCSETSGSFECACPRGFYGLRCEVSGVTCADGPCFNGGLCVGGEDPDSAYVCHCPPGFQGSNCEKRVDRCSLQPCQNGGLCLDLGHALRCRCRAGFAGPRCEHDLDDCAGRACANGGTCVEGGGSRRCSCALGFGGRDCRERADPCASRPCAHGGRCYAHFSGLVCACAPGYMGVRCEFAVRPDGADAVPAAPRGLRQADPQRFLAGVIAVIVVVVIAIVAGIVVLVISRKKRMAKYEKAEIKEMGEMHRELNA

| Binder | MFI |
| --- | --- |
| B1 | 1350 MFI |
| B2 | 1440 MFI |
| B3 | 1410 MFI |

biological target: human DLL3 protein expressed on CHO-K1 recombinant cells (human DLL3 extracellular segment fused to EpCAM transmembrane and intracellular regions) (human) (UniProt Q9NYJ7); assay: FACS, CHO-K1 hDLL3 cells, 0.0064 nM antibody

| Binder | MFI |
| --- | --- |
| B1 | 174 MFI |
| B2 | 166 MFI |
| B3 | 153 MFI |

biological target: mouse DLL3 on CHO-K1-mDLL3 cells (mouse) (UniProt O88516); assay: FACS, CHO-K1-mDLL3 cells, 4 nM antibody

| Binder | MFI |
| --- | --- |
| B1 | 1160 MFI |
| B2 | 1240 MFI |
| B3 | 1230 MFI |

biological target: monkey DLL3 on CHO-K1-cyno DLL3 cells (cynomolgus monkey); assay: FACS, CHO-K1-cyno DLL3 cells, 0.16 nM antibody

| Binder | MFI |
| --- | --- |
| B1 | 1140 MFI |
| B2 | 1330 MFI |
| B3 | 1150 MFI |

biological target: mouse DLL3 on CHO-K1-mDLL3 cells (mouse) (UniProt O88516); assay: FACS, CHO-K1-mDLL3 cells, 0.032 nM antibody

| Binder | MFI |
| --- | --- |
| B1 | 186 MFI |
| B2 | 199 MFI |
| B3 | 185 MFI |

biological target: monkey DLL3 on CHO-K1-cyno DLL3 cells (cynomolgus monkey); assay: FACS, CHO-K1-cyno DLL3 cells, 20 nM antibody

| Binder | MFI |
| --- | --- |
| B1 | 6970 MFI |
| B2 | 7090 MFI |
| B3 | 6530 MFI |

biological target: monkey DLL3 on CHO-K1-cyno DLL3 cells (cynomolgus monkey); assay: FACS, CHO-K1-cyno DLL3 cells, 100 nM antibody

| Binder | MFI |
| --- | --- |
| B1 | 7310 MFI |
| B2 | 7380 MFI |
| B3 | 6850 MFI |

biological target: mouse DLL3 on CHO-K1-mDLL3 cells (mouse) (UniProt O88516); assay: FACS, CHO-K1-mDLL3 cells, 0.16 nM antibody

| Binder | MFI |
| --- | --- |
| B1 | 361 MFI |
| B2 | 424 MFI |
| B3 | 390 MFI |

biological target: DLL3 endogenously expressed on NCI-H82 cells (UniProt Q9NYJ7); assay: FACS on NCI-H82 cells; antibody 100 nM

| Binder | MFI |
| --- | --- |
| B1 | 983 |
| B2 | 1110 |
| B3 | 1220 |

biological target: mouse DLL3 on CHO-K1-mDLL3 cells (mouse) (UniProt O88516); assay: FACS, CHO-K1-mDLL3 cells, 0.0064 nM antibody

| Binder | MFI |
| --- | --- |
| B1 | 131 MFI |
| B2 | 139 MFI |
| B3 | 131 MFI |

biological target: DLL3 endogenously expressed on NCI-H82 cells (UniProt Q9NYJ7); assay: FACS on NCI-H82 cells; antibody 0.16 nM

| Binder | MFI |
| --- | --- |
| B1 | 426 |
| B2 | 473 |
| B3 | 430 |

biological target: mouse DLL3 on CHO-K1-mDLL3 cells (mouse) (UniProt O88516); assay: FACS, CHO-K1-mDLL3 cells, 0.00128 nM antibody

| Binder | MFI |
| --- | --- |
| B1 | 122 MFI |
| B2 | 122 MFI |
| B3 | 121 MFI |

biological target: DLL3 endogenously expressed on NCI-H82 cells (UniProt Q9NYJ7); assay: FACS on NCI-H82 cells; antibody 20 nM

| Binder | MFI |
| --- | --- |
| B1 | 838 |
| B2 | 929 |
| B3 | 937 |

biological target: DLL3 endogenously expressed on NCI-H82 cells (UniProt Q9NYJ7); assay: FACS on NCI-H82 cells; antibody 0.00128 nM

| Binder | MFI |
| --- | --- |
| B1 | 121 |
| B2 | 122 |
| B3 | 117 |

biological target: monkey DLL3 on CHO-K1-cyno DLL3 cells (cynomolgus monkey); assay: FACS, CHO-K1-cyno DLL3 cells, 0.8 nM antibody

| Binder | MFI |
| --- | --- |
| B1 | 4140 MFI |
| B2 | 4590 MFI |
| B3 | 4080 MFI |

biological target: monkey DLL3 on CHO-K1-cyno DLL3 cells (cynomolgus monkey); assay: FACS, CHO-K1-cyno DLL3 cells, 4 nM antibody

| Binder | MFI |
| --- | --- |
| B1 | 6500 MFI |
| B2 | 6610 MFI |
| B3 | 6080 MFI |

biological target: human DLL3 protein expressed on CHO-K1 recombinant cells (human DLL3 extracellular segment fused to EpCAM transmembrane and intracellular regions) (human) (UniProt Q9NYJ7); assay: FACS, CHO-K1 hDLL3 cells, 100 nM antibody

| Binder | MFI |
| --- | --- |
| B1 | 11800 MFI |
| B2 | 12000 MFI |
| B3 | 11300 MFI |

biological target: mouse DLL3 on CHO-K1-mDLL3 cells (mouse) (UniProt O88516); assay: FACS, CHO-K1-mDLL3 cells, 100 nM antibody

| Binder | MFI |
| --- | --- |
| B1 | 1460 MFI |
| B2 | 1580 MFI |
| B3 | 1530 MFI |

biological target: DLL3 endogenously expressed on NCI-H82 cells (UniProt Q9NYJ7); assay: FACS on NCI-H82 cells; antibody 0.032 nM

| Binder | MFI |
| --- | --- |
| B1 | 212 |
| B2 | 230 |
| B3 | 216 |

biological target: mouse DLL3 on CHO-K1-mDLL3 cells (mouse) (UniProt O88516); assay: FACS, CHO-K1-mDLL3 cells, 0.8 nM antibody

| Binder | MFI |
| --- | --- |
| B1 | 884 MFI |
| B2 | 953 MFI |
| B3 | 870 MFI |

biological target: human DLL4 protein (Acro, Cat. No. DL4-H5227) (human) (UniProt Q9NR61); assay: ELISA, coated hDLL4; maximum over 0.1, 1, 10, 100 nM antibody
Sequence (Q9NR61 27-524 limits assumed): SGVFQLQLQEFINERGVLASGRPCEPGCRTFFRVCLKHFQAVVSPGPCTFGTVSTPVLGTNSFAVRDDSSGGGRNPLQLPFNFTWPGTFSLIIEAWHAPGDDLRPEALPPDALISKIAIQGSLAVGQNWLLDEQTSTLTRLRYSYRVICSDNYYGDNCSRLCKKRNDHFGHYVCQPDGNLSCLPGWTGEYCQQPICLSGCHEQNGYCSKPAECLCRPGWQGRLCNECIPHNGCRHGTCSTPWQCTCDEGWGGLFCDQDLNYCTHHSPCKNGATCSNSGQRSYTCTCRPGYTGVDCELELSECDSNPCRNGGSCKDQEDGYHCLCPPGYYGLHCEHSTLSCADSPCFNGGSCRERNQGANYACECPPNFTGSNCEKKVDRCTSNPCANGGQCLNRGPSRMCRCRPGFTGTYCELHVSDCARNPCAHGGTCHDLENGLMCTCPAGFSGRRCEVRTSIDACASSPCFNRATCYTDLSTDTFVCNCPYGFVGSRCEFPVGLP

| Binder | Emax of OD450 nm binding value |
| --- | --- |
| B1 | 0.67 OD450 nm |
| B2 | 0.64 OD450 nm |
| B3 | 0.82 OD450 nm |

Source: patent EP4786492A1
